Assay [1] concerns the target human mitochondrial heat shock protein 60 (hsp60), wild type (human) (UniProt P10809). Briefly: negative-stain electron microscopy; wild type hsp60/hsp10 with 2 mM ATP, about 5 min at room temperature, no substrate; bullet reconstruction, C7 symmetry, about 17 A.
Assay [2] shares this target. The experiment in a line: dynamic light scattering; 1 uM hsp60 (wild type or mutant), 2 uM hsp10, 2 mM ADP; 5 min at 37 C; unbound nucleotide removed on desalting spin columns.
Assay [3] has the same target. The experiment in a line: negative-stain electron microscopy; hsp60 and hsp10 (2:1 molar ratio) with 100 mM ATP, about 5 min at room temperature, no substrate; football reconstruction, D7 symmetry, about 20 A.
Assay [4] shares this target. The experiment in a line: dynamic light scattering; 1 uM hsp60 (wild type or mutant), 2 uM hsp10, 100 mM ATP, 100 mM MgCl2; 5 min at 37 C; unbound nucleotide removed on desalting spin columns.
Assay [5] has the same target. The experiment in a line: dynamic light scattering; Malvern Zetasizer Nano ZS, hsp60 (wild type or mutant) without nucleotide (APO); percent volume.
Assay [6] shares this target. The experiment in a line: negative-stain electron microscopy; hsp60 and hsp10 (1:1 molar ratio) with 2 mM Mg-ADP, about 5 min at room temperature, no substrate.
Assay [7] shares this target. Briefly: negative-stain electron microscopy; purified hsp60/hsp10 at 0.2 mg/ml on carbon grids, no nucleotide and no substrate (APO conformation); class averages and single-particle reconstruction.

human mitochondrial heat shock protein 60 (hsp60), wild type, sequence (P10809 27-573): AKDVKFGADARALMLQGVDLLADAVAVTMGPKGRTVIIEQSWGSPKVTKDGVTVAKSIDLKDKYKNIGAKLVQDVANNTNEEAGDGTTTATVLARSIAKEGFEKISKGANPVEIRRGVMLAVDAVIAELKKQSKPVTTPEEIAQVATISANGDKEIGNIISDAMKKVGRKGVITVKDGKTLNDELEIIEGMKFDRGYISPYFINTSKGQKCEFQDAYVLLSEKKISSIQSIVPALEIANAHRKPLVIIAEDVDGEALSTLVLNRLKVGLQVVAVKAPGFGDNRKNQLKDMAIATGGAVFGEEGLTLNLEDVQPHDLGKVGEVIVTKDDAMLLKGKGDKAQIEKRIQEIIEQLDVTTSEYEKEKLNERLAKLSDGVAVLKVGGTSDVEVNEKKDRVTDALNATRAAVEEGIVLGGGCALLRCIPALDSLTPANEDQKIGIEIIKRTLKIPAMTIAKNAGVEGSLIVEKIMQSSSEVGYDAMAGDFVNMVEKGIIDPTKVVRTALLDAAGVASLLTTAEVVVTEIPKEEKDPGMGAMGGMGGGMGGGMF

As for “human mitochondrial heat shock protein 60 (hsp60), wild type (from UniProt P10809 27-573) (natural protein)”, the stoichiometry N in assay [1] was found to be 14; in assay [2], 14; in assay [3] it was 14; in assay [4] it was 14; in assay [5], 14; in assay [6] it was 7. This substance also yielded a stoichiometry N in assay [7] of 14.

For the origin of these results see PMC6707239.
